The text below walks through data of patent US20200407397A1 (RESEARCH FOUNDATION FOR THE STATE UNIVERSITY OF NEW YORK, published 2020).

For one assay, the target named is recombinant LDHA (human, UniProt P00338 1-332). In words: fluorescence anisotropy, labelled peptide with recombinant LDHA. The method, then: Fluorescence anisotropy was measured in triplicate using a SpectraMax i3 equipped with rhodamine fluorescence polarization module (lex\lem.535 nm/595 nm). Curve fitting was done in KaleidaGraph 4.0.
The target in assay [1] is Lactate dehydrogenase A (LDHA), endogenous (human, UniProt P00338 2-332). The assay can be described thus: anti-FLAG IP from HEK293, immunoblot for LDHA.

Where no end group is shown, it is not given here.

B1: FLCN-10-Rhodamine B (peptide)
peptide: AQRMNTAFTP
modifications: also: Rhodamine B label, site not given here
notes: Labelled form used for fluorescence anisotropy and for the ex vivo tissue treatment; also called FLCN-10-Rhod-B; Rhodamine-B-labeled FLCN-10
Take B1: in the assay with recombinant LDHA, the binding result is listed as “binds”.

B2: FLCN P228A mutant (FLAG-tagged) (other)
chain: MNAIVALCHFCELHGPRTLFCTEVLHAPLPQGDGNEDSPGQGEQAEEEEGGIQMNSRMRAHSPAEGASVESSSPGPKKSDMCEGCRSLAAGHPGYISHDKETSIKYVSHQHPSHPQLFSIVRQACVRSLSCEVCPGREGPIFFGDEQHGFVFSHTFFIKDSLARGFQRWYSIITIMMDRIYLINSWPFLLGKVRGIIDELQGKALKVFEAEQFGCPQRAQRMNTAFTAFLHQRNGNAARSLTSLTSDDNLWACLHTSFAWLLKACGSRLTEKLLEGAPTEDTLVQMEKLADLEEESESWDNSEAEEEEKAPVLPESTEGRELTQGPAESSSLSGCGSWQPRKLPVFKSLRHMRQVLGAPSFRMLAWHVLMGNQVIWKSRDVDLVQSAFEVLRTMLPVGCVRIIPYSSQYEEAYRCNFLGLSPHVQIPPHVLSSEFAVIVEVHAAARSTLHPVGCEDDQSLSKYEFVVTSGSPVAADRVGPTILNKIEAALTNQNLSVDVVDQCLVCLKEEWMNKVKVLFKFTKVDSRPKEDTQKLLSILGASEEDNVKLLKFWMTGLSKTYKSHLMSTVRSPTASESRN
notes: Full FLCN protein with a point mutation in the FLCN-10 region, expressed in HEK293 cells; not shown: FLAG tag (immunoprecipitated using anti-FLAG agarose)
In the case of B2, the binding result in assay [1] is given as “no binding”.

B3: FLCN-F226A-FLAG (other)
chain: MNAIVALCHFCELHGPRTLFCTEVLHAPLPQGDGNEDSPGQGEQAEEEEGGIQMNSRMRAHSPAEGASVESSSPGPKKSDMCEGCRSLAAGHPGYISHDKETSIKYVSHQHPSHPQLFSIVRQACVRSLSCEVCPGREGPIFFGDEQHGFVFSHTFFIKDSLARGFQRWYSIITIMMDRIYLINSWPFLLGKVRGIIDELQGKALKVFEAEQFGCPQRAQRMNTAATPFLHQRNGNAARSLTSLTSDDNLWACLHTSFAWLLKACGSRLTEKLLEGAPTEDTLVQMEKLADLEEESESWDNSEAEEEEKAPVLPESTEGRELTQGPAESSSLSGCGSWQPRKLPVFKSLRHMRQVLGAPSFRMLAWHVLMGNQVIWKSRDVDLVQSAFEVLRTMLPVGCVRIIPYSSQYEEAYRCNFLGLSPHVQIPPHVLSSEFAVIVEVHAAARSTLHPVGCEDDQSLSKYEFVVTSGSPVAADRVGPTILNKIEAALTNQNLSVDVVDQCLVCLKEEWMNKVKVLFKFTKVDSRPKEDTQKLLSILGASEEDNVKLLKFWMTGLSKTYKSHLMSTVRSPTASESRN
notes: Expressed in HEK293 and UOK257 cells; not shown: FLAG tag
On to B3, for which, in assay [1], the binding result was “no binding”.

B4: FLCN R221A mutant (FLAG-tagged) (other)
chain: MNAIVALCHFCELHGPRTLFCTEVLHAPLPQGDGNEDSPGQGEQAEEEEGGIQMNSRMRAHSPAEGASVESSSPGPKKSDMCEGCRSLAAGHPGYISHDKETSIKYVSHQHPSHPQLFSIVRQACVRSLSCEVCPGREGPIFFGDEQHGFVFSHTFFIKDSLARGFQRWYSIITIMMDRIYLINSWPFLLGKVRGIIDELQGKALKVFEAEQFGCPQRAQAMNTAFTPFLHQRNGNAARSLTSLTSDDNLWACLHTSFAWLLKACGSRLTEKLLEGAPTEDTLVQMEKLADLEEESESWDNSEAEEEEKAPVLPESTEGRELTQGPAESSSLSGCGSWQPRKLPVFKSLRHMRQVLGAPSFRMLAWHVLMGNQVIWKSRDVDLVQSAFEVLRTMLPVGCVRIIPYSSQYEEAYRCNFLGLSPHVQIPPHVLSSEFAVIVEVHAAARSTLHPVGCEDDQSLSKYEFVVTSGSPVAADRVGPTILNKIEAALTNQNLSVDVVDQCLVCLKEEWMNKVKVLFKFTKVDSRPKEDTQKLLSILGASEEDNVKLLKFWMTGLSKTYKSHLMSTVRSPTASESRN
notes: as for B2
For the molecule B4, the binding result in assay [1] is “no binding”.

B5: FLCN-M222A-FLAG (other)
chain: MNAIVALCHFCELHGPRTLFCTEVLHAPLPQGDGNEDSPGQGEQAEEEEGGIQMNSRMRAHSPAEGASVESSSPGPKKSDMCEGCRSLAAGHPGYISHDKETSIKYVSHQHPSHPQLFSIVRQACVRSLSCEVCPGREGPIFFGDEQHGFVFSHTFFIKDSLARGFQRWYSIITIMMDRIYLINSWPFLLGKVRGIIDELQGKALKVFEAEQFGCPQRAQRANTAFTPFLHQRNGNAARSLTSLTSDDNLWACLHTSFAWLLKACGSRLTEKLLEGAPTEDTLVQMEKLADLEEESESWDNSEAEEEEKAPVLPESTEGRELTQGPAESSSLSGCGSWQPRKLPVFKSLRHMRQVLGAPSFRMLAWHVLMGNQVIWKSRDVDLVQSAFEVLRTMLPVGCVRIIPYSSQYEEAYRCNFLGLSPHVQIPPHVLSSEFAVIVEVHAAARSTLHPVGCEDDQSLSKYEFVVTSGSPVAADRVGPTILNKIEAALTNQNLSVDVVDQCLVCLKEEWMNKVKVLFKFTKVDSRPKEDTQKLLSILGASEEDNVKLLKFWMTGLSKTYKSHLMSTVRSPTASESRN
notes: Expressed in HEK293, UOK257 and ccRCC cells; also called M222A mutant; not shown: FLAG tag
As for B5, in assay [1], the binding result is reported as “binds”.
